Measurements as given in patent US20240400677A1 (ELECTRA THERAPEUTICS, published 2024).
Where a chain is given by its changes, count along the chain named.

T1: cynomolgus monkey SIRPγ on CHO cells (cynomolgus monkey, UniProt Q9P1W8 29-386 (human entry))
T1 construct: also called Cyno SIRPγ CHO
T1 chain: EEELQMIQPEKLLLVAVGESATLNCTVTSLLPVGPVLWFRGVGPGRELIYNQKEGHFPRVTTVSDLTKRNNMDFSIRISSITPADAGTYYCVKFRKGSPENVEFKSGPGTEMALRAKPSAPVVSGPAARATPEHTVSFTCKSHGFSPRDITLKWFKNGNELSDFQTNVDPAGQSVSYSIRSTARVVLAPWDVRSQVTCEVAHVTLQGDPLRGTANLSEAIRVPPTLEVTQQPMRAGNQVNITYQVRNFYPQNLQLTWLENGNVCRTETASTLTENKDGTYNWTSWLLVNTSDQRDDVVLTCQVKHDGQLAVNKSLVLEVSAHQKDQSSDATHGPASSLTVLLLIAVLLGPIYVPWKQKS

T2: cynomolgus monkey SIRPα on CHO cells (cynomolgus monkey, UniProt A0A2K5VYQ9 31-507)
T2 construct: whole, on cells; also called Cyno SIRPα CHO
T2 sequence: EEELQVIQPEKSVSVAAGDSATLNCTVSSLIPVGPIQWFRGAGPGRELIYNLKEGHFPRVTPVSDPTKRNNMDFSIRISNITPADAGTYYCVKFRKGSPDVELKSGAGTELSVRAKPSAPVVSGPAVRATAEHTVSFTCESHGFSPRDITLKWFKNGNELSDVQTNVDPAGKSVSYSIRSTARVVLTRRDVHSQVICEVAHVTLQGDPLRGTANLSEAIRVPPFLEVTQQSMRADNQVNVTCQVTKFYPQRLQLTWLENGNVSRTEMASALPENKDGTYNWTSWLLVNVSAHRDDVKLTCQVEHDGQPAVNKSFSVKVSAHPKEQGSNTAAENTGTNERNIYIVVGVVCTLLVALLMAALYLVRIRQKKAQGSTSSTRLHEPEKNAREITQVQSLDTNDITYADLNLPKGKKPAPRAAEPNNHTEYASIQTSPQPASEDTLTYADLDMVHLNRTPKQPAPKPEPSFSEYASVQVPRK

T3: Cynomolgus Monkey SIRPγ (plate-coated extracellular domain)
T3 construct: also called Cyno SIRPγ
T3 extracellular domain: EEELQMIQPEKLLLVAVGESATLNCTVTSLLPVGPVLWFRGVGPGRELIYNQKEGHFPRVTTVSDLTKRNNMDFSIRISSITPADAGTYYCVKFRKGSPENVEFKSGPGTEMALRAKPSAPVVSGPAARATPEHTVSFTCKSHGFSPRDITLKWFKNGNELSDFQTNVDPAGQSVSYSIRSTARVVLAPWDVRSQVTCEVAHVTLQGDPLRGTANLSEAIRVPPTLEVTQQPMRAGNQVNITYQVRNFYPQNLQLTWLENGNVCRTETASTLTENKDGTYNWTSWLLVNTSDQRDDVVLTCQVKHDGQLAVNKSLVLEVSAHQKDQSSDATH

T4: cynomolgus monkey SIRPγ-His monomer protein (cynomolgus monkey, UniProt Q9P1W8 29-359 (human entry), limits assumed)
T4 construct: also called Cyno SIRPγ; Cyno SIRPγ-His
T4 chain: T3 extracellular domain

B1: Antibody 54 (antibody, V domains shown)
VH: QVQLVQSGAEVKKPGASVKVSCKASGYSFSDYYMHWVRQAPGQGLEWMGWMSPNSGNTGYAQKFQGRVTMTRDTSTSTVYMELSSLRSEDTAVYYCARQREEYGHYYYGMDVWGQGTMVTVSS
VL: EIVMTQSPATLSVSPGERATLSCRASQSLGSTYLAWYQQKPGQAPRLLIYGASTRATGIPARFSGSGSGTEFTLTISSLQSEDFAVYYCQQYYSSPPTFGQGTKVEIK
B2: Antibody 3 (antibody, V domains shown)
VH: QVQLVESGGGVVQPGRSLRLSCAASGFTFSNYGMHWVRQAPGKGLEWVAFIWYDGSNKNYADSVKGRFTISRDNPTNTLYLQMNSLRAEDTAVYYCAREEQWLDYWGQGTLVTVSS
VL: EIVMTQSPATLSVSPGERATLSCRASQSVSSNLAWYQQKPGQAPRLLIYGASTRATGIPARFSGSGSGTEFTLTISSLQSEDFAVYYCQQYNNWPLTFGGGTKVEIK
B3: Antibody 4 (antibody, V domains shown)
VH: B2 VH
VL: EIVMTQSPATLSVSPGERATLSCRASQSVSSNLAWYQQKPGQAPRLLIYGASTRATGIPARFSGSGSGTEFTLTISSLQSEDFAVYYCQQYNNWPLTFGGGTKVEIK
B4: Antibody 6 (antibody, V domains shown)
VH: QVQLVQSGAEVKKPGASVKVSCKASGYTFTGYHIHWVRQAPGQGLEWMGWINPNSGGTNYAQKFQGRVTMTRDTSINTAYMELNRLRSDDTAVFYCARERVGYCSRPSCLDDLNIWGQGTMVTVSS
VL: DIQMTQSPSTLSASVGDRVTITCRASQSISSWLAWYQQKPGKAPKLLIYKASSLETGVPSRFSGSGSGTEFTLTISSLQPDDFATYYCQQYDSYYTFGQGTKLEIK
B5: Antibody 5 (antibody, V domains shown)
VH: B4 VH
VL: B4 VL
B6: Antibody 64 (antibody, V domains shown)
VH: QVQLVQSGAEVKKPGASVKVSCKASGYTFTSYYMHWVRQAPGQGLEWMGRINPNSGGTKYAQKFQGRVTMTRDTSTSTVYMELSSLRSEDTAVYYCARLGSAYFDLWGRGTLVTVSS
VL: DIQMTQSPSSLSASVGDRVTITCRASQSVDTWLAWYQQKPGKAPKLLIYEASTLESGVPSRFSGSGSGTDFTLTISSLQPEDFATYYCQQANSFPITFGQGTRLEIK
B7: Antibody 88 (antibody, V domains shown)
VH: QVQLVQSGAEVKKPGASVKVSCKASGYTFTSHDINWVRQAPGQGLEWMGWMNANNGNAGYAQKFQGRVTMTRDTSTSTVYMELSSLRSEDTAVYYCAKDLSPSSSWSTYYYYYGMDVWGQGTMVTVSS
VL: DIQMTQSPSSLSASVGDRVTITCRASQSISNLLAWYQQKPGKAPKLLIYAASSLQSGVPSRFSGSGSGTDFTLTISSLQPEDFATYYCQQSYSTPYTFGQGTKLEIK
B8: Antibody 84 (antibody, V domains shown)
VH: QVQLVQSGAEVKKPGASVKVSCKASGYTFTSYYMHWVRQAPGQGLEWMGWINPNSGNAGFAQKFQGRVTMTRDTSTSTVYMELSSLRSEDTAVYYCARGPVYSYGPFDYWGQGTLVTVSS
VL: B7 VL with S28G, N31T, L32Y, S53T, Y92H, T94A, Y96I, L104V

How the values were obtained:
[1] = molecular target: T5, extracellular binding domain of human SIRPγ (plate-coated) (human, UniProt Q9P1W8 29-360); experiment: competition ELISA, coated SIRPγ ECD, antibody 1 h then 10 µg/mL biotinylated CD47-Fc (blocked ligand), streptavidin-HRP
T5 construct: also called hSIRPγ
T5 sequence (Q9P1W8 29-360 limits assumed): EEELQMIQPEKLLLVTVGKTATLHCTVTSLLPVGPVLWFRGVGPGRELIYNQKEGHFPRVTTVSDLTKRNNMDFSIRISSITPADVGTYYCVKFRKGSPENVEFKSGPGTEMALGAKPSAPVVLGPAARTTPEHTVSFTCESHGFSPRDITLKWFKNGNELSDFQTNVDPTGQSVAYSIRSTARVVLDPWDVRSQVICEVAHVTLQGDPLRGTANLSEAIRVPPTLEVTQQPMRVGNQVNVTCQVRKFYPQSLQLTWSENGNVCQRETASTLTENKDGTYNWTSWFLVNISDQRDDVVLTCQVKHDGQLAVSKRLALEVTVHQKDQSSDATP
Experimental: To carry out the competition experiment, the extracellular binding domain of SIRPγ was coated onto a high protein-binding plate and blocked. A titration of each SIRPγ antibody was incubated on the plate for 1 hour. […] Following a wash, streptavidin-HRP was added. The plate was washed again and developed using a chemiluminescent substrate. The plate was read on a plate reader to assess luminescence. […] A known blocker antibody was used as a positive control.

[2] = molecular target: T1, cynomolgus monkey SIRPγ on CHO cells; experiment: flow cytometry, CHO transfectants, anti-human IgG
Summary of the method: (§1)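 Read-out is median fluorescence intensity for each antibody concentration, measured after a titration series is bound to stably transfected CHO cells and stained with labelled anti-human IgG. The scFv data come from myc-tagged crude PPE, also run on parental CHO-K1, where fold change below 2.0 denotes no binding.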

[3] = molecular target: T2, cynomolgus monkey SIRPα on CHO cells; experiment: flow cytometry, CHO transfectants, anti-human IgG
Summary of the method: as §1

[4] = molecular target: T6, human SIRPβ1 on CHO cells (co-transfected with DAP12) (human, UniProt O00241 30-398); experiment: flow cytometry, CHO transfectants, anti-human IgG
T6 construct: whole, on cells; co-transfected with DAP12; also called Human SIRPβ1 CHO
T6 sequence (O00241 30-398): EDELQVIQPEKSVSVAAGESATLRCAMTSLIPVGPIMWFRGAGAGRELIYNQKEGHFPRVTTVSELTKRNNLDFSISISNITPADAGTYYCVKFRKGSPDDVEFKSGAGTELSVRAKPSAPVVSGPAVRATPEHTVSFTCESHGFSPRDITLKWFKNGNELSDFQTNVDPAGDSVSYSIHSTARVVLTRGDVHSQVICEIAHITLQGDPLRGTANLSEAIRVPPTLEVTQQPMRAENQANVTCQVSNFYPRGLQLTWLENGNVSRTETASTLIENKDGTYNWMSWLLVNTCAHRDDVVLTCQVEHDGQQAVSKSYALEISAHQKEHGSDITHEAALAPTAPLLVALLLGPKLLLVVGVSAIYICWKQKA
Summary of the method: as §1

[5] = molecular target: T7, human SIRPγ on stably transfected CHO cells (human, UniProt Q9P1W8 29-387); experiment: flow cytometry, CHO transfectants, anti-human IgG
T7 construct: also called Human SIRPγ CHO
T7 sequence (Q9P1W8 29-387 limits assumed): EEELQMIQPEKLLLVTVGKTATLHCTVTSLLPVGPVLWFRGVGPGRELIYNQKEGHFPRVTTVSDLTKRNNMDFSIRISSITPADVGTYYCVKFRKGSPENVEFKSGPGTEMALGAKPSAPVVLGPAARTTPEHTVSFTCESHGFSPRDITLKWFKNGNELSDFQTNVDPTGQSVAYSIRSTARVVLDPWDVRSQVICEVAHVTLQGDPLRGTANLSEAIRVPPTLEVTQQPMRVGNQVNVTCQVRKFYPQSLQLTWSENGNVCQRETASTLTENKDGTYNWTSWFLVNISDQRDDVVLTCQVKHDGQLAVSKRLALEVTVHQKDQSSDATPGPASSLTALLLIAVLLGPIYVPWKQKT
Summary of the method: as §1

[6] = molecular target: T8, Human SIRPαV2 (plate-coated extracellular domain) (Homo sapiens, UniProt P78324); experiment: ELISA, coated SIRP ECD (2 µg/mL), anti-human IgG, luminescence
T8 construct: extracellular domain
T8 sequence (P78324 other isoform, or with tags, fused parts or gaps limits assumed): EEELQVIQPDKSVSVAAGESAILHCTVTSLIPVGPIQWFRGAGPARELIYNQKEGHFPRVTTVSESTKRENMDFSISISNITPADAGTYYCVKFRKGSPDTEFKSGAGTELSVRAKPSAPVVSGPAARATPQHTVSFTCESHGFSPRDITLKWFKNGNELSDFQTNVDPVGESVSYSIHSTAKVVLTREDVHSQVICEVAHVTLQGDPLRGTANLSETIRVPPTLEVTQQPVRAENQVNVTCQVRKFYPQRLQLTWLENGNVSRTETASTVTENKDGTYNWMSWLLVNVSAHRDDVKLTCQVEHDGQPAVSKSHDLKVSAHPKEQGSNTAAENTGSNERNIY
Summary of the method: (§2)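 Plate-coated SIRP extracellular domain (2 μg/mL), blocked, then exposed to purified antibodies in titration, after transient expression in Expi293F cells for 5 days and Protein A purification. Bound antibody is detected with anti-human IgG and a chemiluminescent substrate, and reported as relative luminescence units.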

[7] = molecular target: T5, extracellular binding domain of human …; experiment: as above
Summary of the method: as §2

[8] = molecular target: T3, Cynomolgus Monkey SIRPγ (plate-coated …); experiment: as above
Summary of the method: as §2

[9] = molecular target: T9, human SIRPγ on primary human T-cells (human, UniProt Q9P1W8 29-387); experiment: flow cytometry, dye-conjugated antibody, human whole blood (3 donors)
T9 construct: endogenous SIRPγ of donor T-cells; also called SIRPγ on T-cells
T9 sequence (Q9P1W8 29-387 limits assumed): as the sequence (Q9P1W8 29-387 limits assumed) above
Experimental: Selected antibodies and an isotype control were tested for binding to human T-cells, B-cells, NK cells, monocytes, and granulocytes. […] Up to 50 μg/mL fluorescent dye-conjugated antibodies or isotype controls were incubated with whole blood from three normal donors. T-cells were identified as the CD14−, CD20−, SSClow, and CD3+ population or further identified to be CD4+ or CD8+ populations. B-cells were identified as the CD14−, SSClow, and CD20+ population. NK cells were identified as CD14−, CD20−, CD3−, and CD56+. Monocytes were identified as the SSClow and CD14+ population. Granulocytes were identified as the CD14−, CD20−, CD3−, SSChigh population. Graphs depict the median fluorescence intensity (MFI) of each population.

[10] = molecular target: T10, bivalent human SIRPγ protein with mouse Fc (human, UniProt Q9P1W8 29-360); experiment: BLI Octet, antibody on AHC, global 1:2 model
T10 construct: also called Human SIRPγ-mFc
T10 sequence (Q9P1W8 29-360 limits assumed): as the sequence (Q9P1W8 29-360 limits assumed) above
Experimental: (§3) Antibodies were coated onto anti-human Fc capture (AHC) biosensors. SIRP-His monomer protein or bivalent SIRP protein with mouse Fc at four concentrations (200 nM, 100 nM, 50 nM, 25 nM) were exposed to the biosensor to measure on-rate kinetics of SIRP antibodies binding to SIRP protein. The biosensors were then exposed to wash buffer to measure off-rate kinetics. The resulting kinetic data were analyzed and fitted using a global 1:2 binding model.

[11] = molecular target: T11, human SIRPγ-His monomer protein (human, UniProt Q9P1W8 29-360); experiment: BLI Octet, antibody on AHC, global 1:2 model
T11 construct: also called hSIRPγ
T11 sequence (Q9P1W8 29-360 limits assumed): as above
Experimental: as §3

[12] = molecular target: T4, cynomolgus monkey SIRPγ-His monomer …; experiment: BLI Octet, antibody on AHC, global 1:2 model
Experimental: as §3

Row | Binder | IC50 (read off the curve) [1] | EC50 (read off the curve) [2] | binding result [3] | binding result [4] | EC50 (read off the curve) [5] | EC50 (read off the curve) [7] | also measured
1 | B1 | ~0.1 µg/mL | ~0.8 µg/mL | no binding (tested: about 20 µg/mL) | no binding (tested: about 20 µg/mL) | ~0.9 µg/mL |  | 
2 | B2 |  |  |  |  |  | ~0.1 µg/mL | binding result [6]: no binding (tested: about 40 µg/mL)
3 | B3 |  |  |  |  |  | ~0.1 µg/mL | binding result [6]: no binding (tested: about 40 µg/mL)
4 | B4 |  |  |  |  |  | ~0.02 µg/mL | EC50 (read off the curve) [8]: ~0.1 µg/mL; EC50 (read off the curve) [9]: ~0.1 µg/mL
5 | B5 |  |  |  |  |  | ~0.02 µg/mL | EC50 (read off the curve) [8]: ~0.07 µg/mL; EC50 (read off the curve) [9]: ~0.1 µg/mL
6 | B6 | ~0.2 µg/mL | ~0.4 µg/mL | no binding (tested: about 20 µg/mL) |  | ~0.1 µg/mL |  | binding result [8]: binds
7 | B7 | ~0.4 µg/mL |  | no binding (tested: about 30 µg/mL) | no binding (tested: about 30 µg/mL) | ~0.7 µg/mL | ~0.04 µg/mL | Kd [10]: 50.6 nM; Kd [11]: 136 nM; Kd [12]: 67.8 nM
8 | B8 | ~0.2 µg/mL | ~0.2 µg/mL | no binding (tested: about 30 µg/mL) | no binding (tested: about 30 µg/mL) | ~0.2 µg/mL |  | Kd [10]: 2050 nM; Kd [12]: 34.1 nM
